{"source": "paper PMC12892892", "target": "recombinant natriuretic peptide receptor B (NPR-B) (UniProt P20594)", "sequence (P20594 23-458)": "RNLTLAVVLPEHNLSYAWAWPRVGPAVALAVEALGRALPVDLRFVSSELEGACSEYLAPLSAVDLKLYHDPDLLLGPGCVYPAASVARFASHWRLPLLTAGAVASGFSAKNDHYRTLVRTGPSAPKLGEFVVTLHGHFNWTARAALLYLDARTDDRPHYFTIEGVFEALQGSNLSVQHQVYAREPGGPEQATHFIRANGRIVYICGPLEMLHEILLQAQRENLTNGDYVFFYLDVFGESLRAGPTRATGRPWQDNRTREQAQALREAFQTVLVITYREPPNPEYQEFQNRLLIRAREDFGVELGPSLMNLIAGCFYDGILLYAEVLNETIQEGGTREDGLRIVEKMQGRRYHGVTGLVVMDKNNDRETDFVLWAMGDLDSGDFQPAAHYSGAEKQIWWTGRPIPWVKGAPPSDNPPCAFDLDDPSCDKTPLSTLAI", "test": "SPR; recombinant NPR-B immobilised on a CM5 chip by amine coupling (10 ug/mL, 10 mM sodium acetate pH 4.5); CBD-CNP injected at 1.25, 2.5, 5.0, 10 and 20 uM in 50 mM Tris HCl pH 7.5, 200 mM NaCl, 1 mM CaCl2; Biacore X; single-cycle kinetics, 1:1 Langmuir model", "data": [{"substance": "CBD-CNP (collagen-binding domain fused to C-type natriuretic peptide CNP-37) (from UniProt Q9X721 1003-1118)", "values": [{"measurement": "Kd", "result": 495, "unit": "µM"}]}]}
